Ends that are not written are not given here.
Columns and labels:
Assay in all cases: cell-based or functional assay
[1] = target: cynomolgus monkey glucagon receptor (cynomolgus monkey)
[2] = target: human glucagon receptor (human) (UniProt P47871)
[3] = target: mouse GLP1 receptor (mouse) (UniProt O35659)
[4] = target: mouse glucagon receptor (mouse) (UniProt Q61606)
[5] = target: rat glucagon receptor (rat) (UniProt P30082)
[6] = target: human Y1 receptor (human) (UniProt P25929)
[7] = target: mouse Y2 receptor (mouse) (UniProt P97295)
[8] = target: rhesus monkey Y2 receptor (rhesus monkey) (UniProt Q9GK74)
CRHR1 = target: CRHR1
CRHR2 = target: CRHR2
[9] = target: cynomolgus monkey GLP1 receptor (cynomolgus monkey) (UniProt F8V479)
CALCR = target: T1, CALCR
T1 sequence (P30988 1-474, species assumed, looked up): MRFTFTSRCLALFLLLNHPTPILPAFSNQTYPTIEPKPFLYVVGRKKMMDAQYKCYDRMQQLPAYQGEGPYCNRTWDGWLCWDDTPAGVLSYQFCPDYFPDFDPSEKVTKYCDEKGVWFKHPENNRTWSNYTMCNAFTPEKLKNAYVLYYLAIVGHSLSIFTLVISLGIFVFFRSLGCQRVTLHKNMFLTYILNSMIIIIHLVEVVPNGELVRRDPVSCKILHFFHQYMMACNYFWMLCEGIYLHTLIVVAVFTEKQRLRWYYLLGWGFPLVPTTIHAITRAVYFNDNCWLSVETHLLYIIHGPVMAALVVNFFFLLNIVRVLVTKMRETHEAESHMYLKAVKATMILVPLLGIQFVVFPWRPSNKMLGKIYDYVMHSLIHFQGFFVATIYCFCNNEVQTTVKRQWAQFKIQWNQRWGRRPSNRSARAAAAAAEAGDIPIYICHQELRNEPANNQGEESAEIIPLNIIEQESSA

Chain of Dulaglutide (Fc fusion) (chain): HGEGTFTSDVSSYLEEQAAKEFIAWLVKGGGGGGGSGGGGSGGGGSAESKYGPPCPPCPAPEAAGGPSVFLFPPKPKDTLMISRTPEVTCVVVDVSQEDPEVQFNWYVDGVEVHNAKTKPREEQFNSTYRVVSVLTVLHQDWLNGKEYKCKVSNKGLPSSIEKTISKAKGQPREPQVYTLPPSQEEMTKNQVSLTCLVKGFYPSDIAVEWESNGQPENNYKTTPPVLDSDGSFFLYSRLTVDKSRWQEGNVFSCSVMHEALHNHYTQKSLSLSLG
Chain of mouse glucagon receptor (mouse) (Q61606 27-485): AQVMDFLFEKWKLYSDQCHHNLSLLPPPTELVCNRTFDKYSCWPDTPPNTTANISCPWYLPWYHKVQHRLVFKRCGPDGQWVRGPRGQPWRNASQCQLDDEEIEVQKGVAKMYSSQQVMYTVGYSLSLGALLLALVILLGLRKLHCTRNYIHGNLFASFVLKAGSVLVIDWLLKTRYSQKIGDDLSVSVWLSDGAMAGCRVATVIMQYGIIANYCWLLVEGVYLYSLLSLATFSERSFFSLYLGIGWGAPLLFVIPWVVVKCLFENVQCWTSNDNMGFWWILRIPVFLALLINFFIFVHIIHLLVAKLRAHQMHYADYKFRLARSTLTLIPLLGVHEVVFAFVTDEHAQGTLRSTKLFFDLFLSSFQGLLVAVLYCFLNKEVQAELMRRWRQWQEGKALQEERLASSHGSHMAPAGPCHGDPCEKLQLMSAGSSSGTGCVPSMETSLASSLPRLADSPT
Chain of mouse GLP1 receptor (mouse) (O35659 22-463): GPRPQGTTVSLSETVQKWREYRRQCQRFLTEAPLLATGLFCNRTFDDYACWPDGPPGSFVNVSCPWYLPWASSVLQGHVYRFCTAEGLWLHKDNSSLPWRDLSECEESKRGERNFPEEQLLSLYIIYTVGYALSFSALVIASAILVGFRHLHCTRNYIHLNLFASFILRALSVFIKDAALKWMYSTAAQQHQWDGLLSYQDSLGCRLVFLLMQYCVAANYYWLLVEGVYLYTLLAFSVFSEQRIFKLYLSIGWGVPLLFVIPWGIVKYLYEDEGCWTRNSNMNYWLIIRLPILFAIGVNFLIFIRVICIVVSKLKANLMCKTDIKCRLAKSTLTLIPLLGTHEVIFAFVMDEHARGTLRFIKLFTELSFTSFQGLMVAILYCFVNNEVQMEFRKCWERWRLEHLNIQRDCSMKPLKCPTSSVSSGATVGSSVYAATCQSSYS
Chain of rat glucagon receptor (rat) (P30082 27-485): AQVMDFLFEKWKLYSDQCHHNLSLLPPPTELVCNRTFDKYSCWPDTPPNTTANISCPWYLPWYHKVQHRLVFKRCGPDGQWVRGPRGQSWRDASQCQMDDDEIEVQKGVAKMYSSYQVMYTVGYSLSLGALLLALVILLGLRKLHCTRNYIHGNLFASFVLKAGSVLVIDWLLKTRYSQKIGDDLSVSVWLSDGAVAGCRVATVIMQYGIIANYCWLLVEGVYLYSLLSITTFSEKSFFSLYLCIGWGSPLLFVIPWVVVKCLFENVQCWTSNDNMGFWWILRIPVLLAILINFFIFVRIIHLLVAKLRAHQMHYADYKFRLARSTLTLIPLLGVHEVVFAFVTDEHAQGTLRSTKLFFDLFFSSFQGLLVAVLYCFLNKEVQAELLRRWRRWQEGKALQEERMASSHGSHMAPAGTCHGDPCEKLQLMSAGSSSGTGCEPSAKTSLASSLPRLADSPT
Chain of human Y1 receptor (human) (P25929 whole entry): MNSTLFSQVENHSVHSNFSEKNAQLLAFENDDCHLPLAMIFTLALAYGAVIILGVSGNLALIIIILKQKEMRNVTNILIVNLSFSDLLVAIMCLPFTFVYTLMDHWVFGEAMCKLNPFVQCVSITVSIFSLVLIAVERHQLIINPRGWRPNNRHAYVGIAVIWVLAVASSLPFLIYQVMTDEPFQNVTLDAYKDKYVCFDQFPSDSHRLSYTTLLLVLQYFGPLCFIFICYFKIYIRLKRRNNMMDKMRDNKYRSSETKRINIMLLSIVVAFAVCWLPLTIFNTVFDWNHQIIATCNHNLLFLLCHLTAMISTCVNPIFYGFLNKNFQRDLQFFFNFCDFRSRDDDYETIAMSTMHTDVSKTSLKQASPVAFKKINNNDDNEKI
Chain of human glucagon receptor (human) (P47871 26-477): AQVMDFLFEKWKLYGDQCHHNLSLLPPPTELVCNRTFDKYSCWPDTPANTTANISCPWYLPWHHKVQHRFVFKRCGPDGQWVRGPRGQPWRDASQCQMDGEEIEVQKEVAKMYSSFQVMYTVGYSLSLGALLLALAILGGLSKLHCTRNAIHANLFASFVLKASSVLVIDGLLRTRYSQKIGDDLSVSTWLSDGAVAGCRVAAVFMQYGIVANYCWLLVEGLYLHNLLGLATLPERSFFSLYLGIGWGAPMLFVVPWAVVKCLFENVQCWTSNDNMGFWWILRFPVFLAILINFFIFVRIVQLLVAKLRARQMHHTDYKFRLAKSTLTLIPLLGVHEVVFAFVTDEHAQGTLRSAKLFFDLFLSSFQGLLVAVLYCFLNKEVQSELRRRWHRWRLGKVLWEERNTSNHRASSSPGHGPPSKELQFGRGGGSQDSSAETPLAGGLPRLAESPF
Chain of rhesus monkey Y2 receptor (rhesus monkey) (Q9GK74 whole entry): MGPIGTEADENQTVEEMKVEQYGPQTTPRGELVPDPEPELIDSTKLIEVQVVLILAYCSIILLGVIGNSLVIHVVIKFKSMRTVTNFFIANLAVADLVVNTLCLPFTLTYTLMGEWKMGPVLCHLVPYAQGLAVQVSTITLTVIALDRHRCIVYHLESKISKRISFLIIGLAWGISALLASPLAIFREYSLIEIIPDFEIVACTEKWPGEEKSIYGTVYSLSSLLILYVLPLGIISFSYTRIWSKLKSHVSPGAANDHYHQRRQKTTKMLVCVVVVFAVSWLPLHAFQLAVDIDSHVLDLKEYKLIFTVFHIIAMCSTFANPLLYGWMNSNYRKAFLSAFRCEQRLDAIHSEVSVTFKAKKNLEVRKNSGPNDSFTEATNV
Chain of mouse Y2 receptor (mouse) (P97295 whole entry): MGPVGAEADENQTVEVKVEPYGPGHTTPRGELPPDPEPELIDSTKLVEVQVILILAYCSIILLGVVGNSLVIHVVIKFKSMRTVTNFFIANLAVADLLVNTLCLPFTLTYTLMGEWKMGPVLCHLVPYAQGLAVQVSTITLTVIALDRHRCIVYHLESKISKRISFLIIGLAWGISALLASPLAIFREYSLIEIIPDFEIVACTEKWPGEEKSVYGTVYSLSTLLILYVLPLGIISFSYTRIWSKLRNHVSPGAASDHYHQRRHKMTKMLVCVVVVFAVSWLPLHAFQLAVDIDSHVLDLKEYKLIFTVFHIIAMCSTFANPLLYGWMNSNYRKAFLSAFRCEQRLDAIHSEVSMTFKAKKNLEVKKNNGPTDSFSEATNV

Q: Which results are given for Dulaglutide (Fc fusion)?
A: EC50, receptor cAMP assay [1]: > 100 nM; EC50, receptor cAMP assay [2]: > 100 nM; EC50, receptor cAMP assay [3]: 0.035 nM; EC50, receptor cAMP assay [4]: > 100 nM; EC50, receptor cAMP assay [5]: > 100 nM

Q: Which EC50, cAMP assay (LANCE) on receptor-expressing cells [6] does the source give for “PYY3-36 (from UniProt P10082 31-64) (peptide)” here?
A: 66.4 nM

Q: What about the EC50, cAMP assay (LANCE) on receptor-expressing cells [7] of the same molecule?
A: 0.03 nM

Q: And the EC50, cAMP assay (LANCE) on receptor-expressing cells [8]?
A: 0.06 nM

Q: What does the source list for Sauvagine (peptide)?
A: RC50, cAMP assay (CRHR1): 0.000308 µM; RC50, cAMP assay (CRHR2): 0.0034 µM

Q: With Sauvagine (peptide; unit assumed) as the molecule, how does the Max response, cAMP assay (CRHR1) read?
A: 106%

Q: And the Max response, cAMP assay (CRHR2)?
A: 107%

Q: For “Ser-8 GLP1 (from UniProt P01275 98-127) (peptide)”, which EC50, receptor cAMP assay [9] is on record?
A: 0.08 nM

Q: And the EC50, receptor cAMP assay [1]?
A: > 100 nM

Q: What about the EC50, receptor cAMP assay [3] of the same molecule?
A: 0.06 nM

Q: What about the EC50, receptor cAMP assay [4] of the same molecule?
A: > 100 nM

Q: What about the EC50, receptor cAMP assay [5] of the same molecule?
A: > 100 nM

Q: With CGNLSTCMLGTYTQDFNKFHTFPQTAIGVGAP (peptide, UniProt P01258 85-116, looked up, species assumed, ends and bridges not checked; cysteine pairing not given here) [Calcitonin] as the molecule, how does the Max response, cAMP assay (CALCR) read?
A: 101%

Q: What about the RC50, cAMP assay (CALCR) of the same molecule?
A: 0.000776 µM
